Among the data in publication PMC7244319 are binding result and Kd values, retold here.

The target of one series is GST-mLysRS (Mus musculus, UniProt Q99MN1 1-595). Put plainly: streptavidin pull-down.
For another series, the target named is GST-LysRS (human) (Homo sapiens, UniProt Q15046 1-597). Nature of the series: streptavidin pull-down, WB quantification.
The next series deals with GST-cGAS (human) (Homo sapiens, UniProt Q8N884 1-522). Nature of the series: streptavidin pull-down, WB quantification.
Chain of GST-cGAS (human) (Q8N884 whole entry): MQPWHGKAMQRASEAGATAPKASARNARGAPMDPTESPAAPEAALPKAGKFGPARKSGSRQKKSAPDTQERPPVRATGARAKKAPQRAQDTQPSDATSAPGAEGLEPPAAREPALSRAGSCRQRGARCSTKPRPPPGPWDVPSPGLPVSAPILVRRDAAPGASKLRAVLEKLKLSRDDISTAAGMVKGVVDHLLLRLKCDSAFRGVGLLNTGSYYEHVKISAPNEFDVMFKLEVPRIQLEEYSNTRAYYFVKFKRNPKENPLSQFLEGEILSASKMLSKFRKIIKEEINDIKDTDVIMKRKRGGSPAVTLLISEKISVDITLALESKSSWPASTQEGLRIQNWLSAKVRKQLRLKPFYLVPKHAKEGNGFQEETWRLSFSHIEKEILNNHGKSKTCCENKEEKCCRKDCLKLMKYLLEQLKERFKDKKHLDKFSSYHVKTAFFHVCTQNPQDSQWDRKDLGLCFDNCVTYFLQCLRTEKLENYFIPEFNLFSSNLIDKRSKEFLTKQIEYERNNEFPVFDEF

Chain of GST-LysRS (human) (Q15046 whole entry): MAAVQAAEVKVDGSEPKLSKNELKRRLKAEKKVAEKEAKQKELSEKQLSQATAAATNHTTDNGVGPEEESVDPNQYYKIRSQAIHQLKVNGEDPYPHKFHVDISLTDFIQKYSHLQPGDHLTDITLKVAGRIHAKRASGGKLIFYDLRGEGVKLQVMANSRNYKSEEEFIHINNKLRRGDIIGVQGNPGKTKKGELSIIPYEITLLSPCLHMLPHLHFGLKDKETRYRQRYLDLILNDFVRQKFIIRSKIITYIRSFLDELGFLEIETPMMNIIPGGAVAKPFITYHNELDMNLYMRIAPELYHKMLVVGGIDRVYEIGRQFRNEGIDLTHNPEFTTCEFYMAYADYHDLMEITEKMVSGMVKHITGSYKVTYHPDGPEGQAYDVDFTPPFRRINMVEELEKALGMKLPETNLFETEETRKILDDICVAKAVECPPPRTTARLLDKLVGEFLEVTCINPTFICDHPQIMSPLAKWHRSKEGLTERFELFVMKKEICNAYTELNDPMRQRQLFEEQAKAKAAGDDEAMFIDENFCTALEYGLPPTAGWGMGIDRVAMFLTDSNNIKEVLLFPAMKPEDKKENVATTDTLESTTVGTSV
Chain of GST-mLysRS (Q99MN1 whole entry): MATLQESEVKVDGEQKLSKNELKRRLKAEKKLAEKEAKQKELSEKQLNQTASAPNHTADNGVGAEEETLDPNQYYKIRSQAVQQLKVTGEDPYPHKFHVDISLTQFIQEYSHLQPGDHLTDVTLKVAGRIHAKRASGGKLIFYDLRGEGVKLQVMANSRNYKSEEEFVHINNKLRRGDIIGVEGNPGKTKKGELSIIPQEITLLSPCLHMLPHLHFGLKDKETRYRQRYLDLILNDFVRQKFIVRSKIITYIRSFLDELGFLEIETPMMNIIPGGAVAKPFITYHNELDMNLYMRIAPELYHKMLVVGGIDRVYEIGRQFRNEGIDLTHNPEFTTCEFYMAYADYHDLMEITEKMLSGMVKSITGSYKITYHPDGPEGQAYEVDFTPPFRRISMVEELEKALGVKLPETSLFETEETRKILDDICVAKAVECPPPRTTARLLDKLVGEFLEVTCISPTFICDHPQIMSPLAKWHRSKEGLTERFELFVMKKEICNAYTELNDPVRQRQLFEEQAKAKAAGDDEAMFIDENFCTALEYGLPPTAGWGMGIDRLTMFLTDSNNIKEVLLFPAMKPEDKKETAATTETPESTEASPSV

B1: BRNA:DNA hybrid (BRNA 2/DNA 9) (DNA:RNA)
RNA: UUUCAAUUCCUUUUAGGAUUAAUCUUGAAGAUAGAGUUAA
DNA: TTAACTCTATCTTCAAGATTAATCCTAAAAGGAATTGAAA
The term Kd denotes the equilibrium constant for the complex coming apart. Higher therefore signals weaker binding. For the molecule B1, in the series with GST-mLysRS, the binding result is on record as “binds”. Further, the dissociation constant (Kd) was ~11.3 nM with GST-LysRS (human) and ~8.05 nM with GST-cGAS (human).
